Biological target: T1, CTI2 (Arabidopsis thaliana, UniProt Q9M8T2)
T1 chain: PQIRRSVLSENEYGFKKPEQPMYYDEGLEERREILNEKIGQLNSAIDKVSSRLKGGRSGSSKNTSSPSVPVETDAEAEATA
Assay: MST

B1: alphaCT (protein)
chain: INMKKREAVFSDSRKLQGEVDKLKEQILKAKETSTEAEPSSEVLNEMIEKLKSEIDDEYTEAAIAVGLEERLTAMREEFSKASSEEHLMHPVLIEKIEKLKEEFNTRLTDAPNYESLKSKLNMLRDFSRAKAASEATSLKKEINKRFQEAVDRPEIREKVEAIKAEVASSGASSFDELPDALKEKVLKTKGEVEAEMAGVLKSMGLELDAVKQNQKDTAEQIYAANENLQEKLEKLNQEITSKIEEVVRTPEIKSMVELLKVETAKASKTPGVTEAYQKIEALEQQIKQKIAEALNTSGLQEKQDELEKELAAARELAAEESDGSVKEDDDDDEDSSESGKSEMVNPSFA
  Kd: 1400 nM
